Where two headings read alike, the source gives them in different places.
Tests used:
Assay in all cases: ELISA
[1] = target: SARS-CoV-2 receptor binding domain (UniProt P0DTC2 319-541)
[2] = target: T1, SARS-CoV-2 prefusion stabilized trimer protein (WIV02 isolate spike protein) (UniProt P0DTC2 14-1213)
[3] = target: T1, SARS-CoV-2 prefusion stabilized trimer …; remark: listed apart in the source

Binder | EC50 [1] | EC50 [2] | EC50 [3]
3-E2-A (antibody, V domains shown) VH: EVQLQQSGPELVKPGASVKISCKASGYTFTDYYMNWVKQSHGKSLEWIGDINPNNGGTSYTQKFKGKATLTVDKSSSKAYMELRSLTSEDSAVYYCARRGDGHYGGFTYWGQGTLVTVSA VL: not shown | 0.8 nM | 0.87 nM | –
10-L24-A (antibody, V domains shown) VH: EVQLQQSGPELVKPGASVKISCKASGYTFTDYYMNWVKQSHGKSLEWIGDINSNNGGTTYDQKFKGKATLTVDRSSSTAYMELRSLTSEDSAVYYCARRGDGHFGGFTYWGQGTLVTVSA VL: not shown | 0.31 nM | 0.92 nM | –
2-O12-A (antibody, V domains shown) VH: EVQLQQSGPELVKPGASVKISCKASGYTFTDYYMNWVKQSHGKSLEWIGDINSNNGGTTYDQKFKGKATLTVDRSSSTAYMELRSLTSEDSAVYYCARRGDGHFGGFTYWGQGTLVTVSA VL: not shown | 0.22 nM | 0.84 nM | –
9-K4-A (antibody, V domains shown) VH: QAYLQQSGAELVRPGASVKMSCKASGYTFPNYSFHWVKQTPRQGLEWIGAIYPGNDDTSYNQRFKGKATLTVDKSSSTAYMQLSSLTSEDSAVYFCARDYSNYPFDCWGQGTTLTVSS VL: DIVLTQSPASLAVSLGQRATISCRASKSVSTSGYSYMHWYQQKPGQPPKLLIYLASNLESGVPARFSGSGSGTDFTLNIHPVEEEDAATYYCQHSRELPPTFGGGTKLEIK | 0.73 nM | 1.13 nM | –
2-H7-A (antibody, V domains shown) VH: QAYLQQSGAELVRPGASVKMSCKASGYTFTGYTMHWVKQTPRQGLEWIGAIYPENGDTSYNQKFKGKATLTVDKSSSTAYMQLSSLTSEDSAVYFCARDGYDVLYGMDYWGQGTSVTVSS VL: DIVLTQSPASLAVSLGQRATISCRASKSVSTSGYSYMHWYQQKPGQPPKLLIYLASNLESGVPARFSGSGSGTDFTLNIHPVEEEDAATYYCQHSRELPWTFGGGTKLDIK | 0.08 nM | 0.13 nM | –
3-P7-A (antibody, V domains shown) VH: QAYLQQSGAELVRPGASVKMSCKASGYTFTSYSMHWVKQTPRQGLEWIGAIYPGNDDTSYNQKFKGKATLTVDKSSSTAYMQLSSLTSEDSAVYFCTRDYTNYPFDYWGQGTTLTVSS VL: DIVLTQSPASLPVSLGQRATISCRASKSVSTSGYSYMHWYQQRPGQPPKLLIYLASNLESGVPARFSASGSGTDFTLNIHPVEEEDAATYYCQHSRELPPTFGGGTKVEIK | 2.93 nM | 38.1 nM | –
10-O24-A (antibody, V domains shown) VH: QAYLQQSGAELVRPGASVKMSCKASGYTFTSYSMHWVKQTPRQGLEWIGAIYPGNDDTSYNQKFKGKATLTVDRSSSTAYMQLSSLTSEDSAVYFCTRDYSNYPFDYWGQGTTLTVSS VL: DIVLTQSPASLAVFLGQRATISCRASKSVSTSGYSYMHWYQQRPGQPPKLLIYLASNLESGVPARFSGSGSGTDFTLNIHPVEEEDAATYYCQHSRELPPTFGGGTKLEIK | 3.07 nM | 1.07 nM | –
5-P24-A (antibody, V domains shown) VH: QAYLQQSGAELVRPGASVKMSCKASGYTFTSYSMHWVKQTPRQGLEWIGAIYPGNGDTSYTQKFKGKATLTVDKSSSTAYMQLSSLTSEDSAVYFCARDYSNYPFDYWGQGTTLTVSS VL: not shown | 0.12 nM | 0.29 nM | –
10-L12-A (antibody, V domains shown) VH: QAYLQQSGAELVRPGASVKMSCKASGYTFTSYSMHWVKQTPRQGLEWIGAIYPGNGDTSYNQKFKGKATLTVDKSSSTAYMQLSSLTSEDSAVYFCTRDYSNYPFDYWGQGTTLTVSS VL: DIVLTQSPASLAVSLGQRATISCRASKSVSTSGYSYLHWYQQKPGQPPKLLIYLASNLESGVPARFSGSGSGTDFTLNIHPVEEEDAATYYCQHSRELPPTFGGGTKLEIK | 0.13 nM | 0.11 nM | –
8-H3-A (antibody, V domains shown) VH: EVQLVESGGGLVQPKGSLKLSCAASGFTFNTYAMHWVRQAPGKGLEWVARIRSKSSNYATYYADSVKDRFTISRDDSQSMLYLQMNNLKTEDTAMYYCVRDHDYYGSSYWFTYWGQGTLVTVSA VL: DVVMTQTPLSLPVSLGDQASISCRSSQSLVHDNGNTYLHWFLQKPGQSPKLLIYKVSNRFSGVPDRFSGSGSGTDFTLKISRVETEDLGVYFCSQSTHVPWTFGGGTKLEIK | 0.19 nM | 0.27 nM | –
7-B10-A (antibody, V domains shown) VH: EVQLVESGGGLVQPKGSLKLSCAASGFTFNTYAMHWVRQAPGKGLEWVARIRSKSSNYARYYADSVKDRFTISRDESQSMLYLQMNNLKTEDTAMYYCVRDHDYYGSSYWFAYWGQGTLVTVSA VL: DVVMTQTPLSLPVSLGDQASISCSSSQSLVHNNGNTYLHWYLQKPGQSPKLLIYKVSNRFSGVPDRFSGSGSGTDFTLKISRVEAEDLGVYFCSQSTHVPWTFGGGTKLEIK | 0.08 nM | 0.16 nM | –
8-L17-A (antibody, V domains shown) VH: EVQLVESGGGLVQPKGSLKLSCAASGFTFNTYAMHWVRQAPGKGLEWVARIRSKSSNYARYYADSVKDRFTISRDDSQSMLYLQMNNLKTEDTAMYYCVRDHDYYGSSYWFAYWGQGTLVTVSA VL: DVVMTQTPLSLPVSLGDQASISCRSSQSLVHNNGNTYLHWYLQKPGQSPKLLIYKVSNRFSGVPDRFSGSGSGTDFTLKISRVEAEDLGVYFCSQSTHVPWTFGGGTKLEIK | 0.27 nM | 0.27 nM | –
7-N20-A (antibody, V domains shown) VH: QVQLVETGGGLVRPGNSLKLSCVTSGFTFSNYRMHWLRQPPGKRLEWIGIITDKSDNYGANYAESVKGRFAISRDDSKSSVYLEMKRLREEDTATYFCSRDGYDWYFDLWGTGTTVTVSS VL: DIVMTQSHKFMSTSVGDRVRITCKASQDVGIVVAWYQQKPGQSPKLLIYWASTRHTGVPDRFTGSGSGTDFTLTISNVQSEDLADYFCQQYSSYPTFGGGTKLEIK | – | 0.24 nM | –
4-K16-A (antibody, V domains shown) VH: QIQLVQSGPELKKPGETVKISCKASGYTFTTYGMSWVKQAPGKGLKWMGWMSTYSGVPTYADDFKGRFAFSLETSASTAYLQINNLKNEDTATYFCASGDVGYWGQGTTLTVSS VL: DIVMTQSQKFMSTSVGDRVSVTCKASQNVGTNVAWYQQKPGQSPKALIYSASYRYSGVPDRFTGSGSGTDFTLTISTVQSEDLAEYFCQQYNIYPSTFGGGTKLEIK | – | 1.04 nM | 1.01 nM
8-H5-A (antibody, V domains shown) VH: QVTLKESGPGILQSSQTLSLTCSLSGFSLSTSGMGVSWVRQPSGKGLEWLAHIYWDDDKRYTPSLKSRLTISTDSSRKQVFLKITSVDTADTATYYCARRDLHDYDGWFAYWGQGTLVTVSA VL: DIVMTQSQKFMSTAVGDRVSVTCKASQNVGTNVAWYQQKPGQSPKALIYSASFRYSGVPDRFSGSGSGTDFTLTISNVQSEDLAEYFCQQYNSYPLTFGSGTKLEIK | 0.13 nM | 0.08 nM | –
4-L4-A (antibody, V domains shown) VH: QAYLQQSGAELVRPGASVKMSCKASGYTFTSYTVHWVKQTPRQGLEWIGGIYPGNVDTSYNQNFKGKATLTVDKSSSTAYMQLSSLTSEDSAVYFCARDGYYAMDYWGQGTSVTVSS VL: not shown | 0.22 nM | 0.37 nM | –
5-H22-A (antibody, V domains shown) VH: QVQLQQSGAELVRPGASVTLSCKASGYTFTDYEMHWMKQTPVHGLEWIGAIDLETGGTVYNQKFKGKAILTADKSSNTAYMALRSLTSEDSAVYYCTREFPHYYGSRYGFPYWGQGTLVTVSA VL: QIVLTQSPAIMSASPGEKVTITCSASSSVSYMHWLQQKPGTSPKLWIYSTSNLASGVPARFSGSGSGTSYSLTISRMEAEDAATYYCQQRSSYPYTFGGGTKLEIK | 166 nM | 75.5 nM | 18.5 nM
10-I12-A (antibody, V domains shown) VH: RVQLQQSGPELVRPGTSVKISCKASGYTFTDSYINWVTQRPGQGLDWIGWIFPGNDNTYYNEKFEGKATLTLDKSSSTAYMLLSSLTSEDSAVYFCARSGGLRLGFAYWGQGTLVTVSA VL: NIVLTQSPASLAVSRGQRATISCRASESVDSYGHSFIHWYQQKPGQPPKILIYLASKLESGVPARFSGSGSRTDFTLTIDPVEADDAATYYCQQNNEDPWTFGGGTKLEIK | – | 64.4 nM | 64.4 nM
4-M3-A (antibody, V domains shown) VH: EVQLQQSGPELVKPGDSVKISCKASGYSFTGYFMNWVMQSHGKSLEWIGRINPNNGETFYNQKFKGKATLTVDKSSDTAHMELRSLTSEDSAVYYCARGGTGTGWGQGTTLTVSS VL: DILMTQSPSSMSVSLGDTVSITCHASQGISSNIGWLQQKPGKSFKGLIYYGTNLEDGVPSRFSGSGSGADYSLTISSLESEDLADYYCIQYAQFPYTFGGGTKLEIK | 0.26 nM | 1.94 nM | –
10-O3-A (antibody, V domains shown) VH: QVQLKESGPGLVAPSQSLSITCTVSGFSLTNYAVHWVRQSPGKGLEWLGVIWSDGRTDYNAAFISRLSISKDNSKSQVFFKMNSLQADDTAIYYCVRIEGGSYVGWYFDVWGAGTTVTVSS VL: DIQMTQSPSSLSASLGGTVTITCKASQDINKFIAWYQHKPGKGPRLLIHYTSTLQPGIPSRFSGSGSGRDYSFSISNLEPEDIATYYCLQYDNLLTFGAGTKLELK | – | 3.47 nM | 3.37 nM
4-A15-A (antibody, V domains shown) VH: QVQLQQSGAELVKPGASVKISCKASGNAFSSYWMNWVKQRPGKGLEWIGQIYPGDGDTNFNGRFKGKATLTADISSTTAYMLLSSLTSEDSAVYFCASGGYGSSYERDFDYWGQGTTLTVSS VL: DIQMNQSPSSLSASLGDTITITCHASQNINVWLSWYQQKPGNIPKLLIYKASNLHTGVPSRFSGSGSGTGFTLTISSLQPEDIATYYCQQGHSYPLTFGGGTKLEIK | – | 0.33 nM | 0.34 nM
9-J11-A (antibody, V domains shown) VH: QVQLQQSGAELVKPGASVKMSCMASGYTFTTYPIEWMKQIHGKSLEWIGNFHPYNDDSKYNEKFKGKATLSVEKSSSTVYLELSRSTSDDSAVYYCARGSYGPYWYFDVWGTGTTVTVSS VL: DIQMTQSPASLSASVGETVTITCRASGDIHNYLVWYQQKQGKSPQLLVYNAKALADGVPSRFSGSGSGTQYSLKINSLQPDDFGSYYCQHFWSIPYTFGGGTKLEIK | – | 0.22 nM | 0.22 nM

— US20240239875A1 (published 2024)
